This experiment concerns the target CD94-NKG2A-mFc singlechain (human). Description: SPR, scCD94/NKG2A chip saturated with humZ270 10 µg/ml, then HLA-E tetramer 8 µg/ml (competitor: HLA-E tetramer). (In general: In SPR one partner is held on a chip, and binding of the other changes the refractive index at the surface.)

CD94-NKG2A-mFc singlechain (human), sequence (chain, as listed by the source): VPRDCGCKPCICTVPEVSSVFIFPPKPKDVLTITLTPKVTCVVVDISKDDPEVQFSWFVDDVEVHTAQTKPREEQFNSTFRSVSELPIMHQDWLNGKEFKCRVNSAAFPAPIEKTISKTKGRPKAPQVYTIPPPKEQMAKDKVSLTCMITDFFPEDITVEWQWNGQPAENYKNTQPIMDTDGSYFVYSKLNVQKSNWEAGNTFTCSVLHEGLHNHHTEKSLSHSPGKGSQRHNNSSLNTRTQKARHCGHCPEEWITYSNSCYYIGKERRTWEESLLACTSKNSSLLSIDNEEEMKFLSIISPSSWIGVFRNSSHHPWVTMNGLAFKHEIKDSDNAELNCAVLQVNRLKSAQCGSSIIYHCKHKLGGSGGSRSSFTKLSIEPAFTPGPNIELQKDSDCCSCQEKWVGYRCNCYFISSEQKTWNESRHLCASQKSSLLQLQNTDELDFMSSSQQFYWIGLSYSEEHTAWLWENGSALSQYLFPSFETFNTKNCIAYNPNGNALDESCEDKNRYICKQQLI

humZ270 (antibody) gave a percentage of inhibition of HLA-E tetramer binding of 81.8%.

Values taken from patent US20090281035A1.
